Test results from US20090170219, “Nucleic acid capable of binding to immunoglobulin G and use thereof” (published 2009).

Columns and labels:
IgG = IgG (rabbit, UniProt P01870 P01870:1-323); test: SPR; details: tags: Zymed Laboratories, chain copies: 2, label: 3' A16 tail for immobilisation
Method: (§1) Used for the measurements was BIAcore 2000 manufactured by BIAcore. Used as the sensor chip was the SA chip having streptavidin immobilized thereon. Bound thereto was about 1000 RU of 16-residue Poly dT having biotin bound to the 5′ end thereof. The RNA for use as the ligand had 16-residue Poly A added to the 3′ end thereof, and immobilized to the SA chip via a bond between dT and A. The amount immobilized was adjusted to about 1000 RU by injecting 60 μL at a concentration of 0.01 μg/μL. 70 μL of IgG-Fc for analyte (manufactured by Athens Research & Technology), adjusted to 0.6 μM, was injected. The running buffer used had the same components as those of the solution A used in SELEX.
(§2) Whether or not the prepared RNA aptamers also have binding affinity for subclasses of IgG other than human IgG1 or for IgG of animal species other than humans was determined using a surface plasmon resonance method. Measurements were performed in the same manner as Example 1 by immobilizing a nucleic acid having 16-residue Poly A added thereto via an A-pT bond, and injecting IgG thereto. Used as the RNA aptamers were the nucleic acids shown by SEQ ID NO:1 and 17. Used as the antibodies were human IgG1 (manufactured by Calbiochem), human IgG2 (manufactured by Calbiochem), human IgG3 (manufactured by Calbiochem), human IgG4 (manufactured by Calbiochem), mouse IgG1 (manufactured by Chemicon International), mouse IgG2a (manufactured by Chemicon International), mouse IgG2b (manufactured by Zymed Laboratories), mouse IgG3 (manufactured by Bethyl Laboratories), rat IgG1 (manufactured by R & D Systems), rat IgG2a. (manufactured by Zymed Laboratories), rat IgG2b. (manufactured by Zymed Laboratories), rat IgG2c (manufactured by UK-Serotec), rabbit IgG (manufactured by Zymed Laboratories), bovine IgG1 (manufactured by Bethyl Laboratories), bovine IgG2 (manufactured by Bethyl Laboratories), chicken IgG (manufactured by Rockland), dog IgG (manufactured by Rockland), cat IgG (manufactured by Bethyl Laboratories), guinea pig IgG (manufactured by Biogenesis), hamster IgG (manufactured by Rockland), and swine IgG (manufactured by Rockland).

IgG2a = IgG2a (mouse, UniProt P01863 P01863:98-330); test: SPR; details: tags: Chemicon International, chain copies: 2, label: 3' A16 tail for immobilisation
IgG2a, sequence (P01863 98-330, one chain of several): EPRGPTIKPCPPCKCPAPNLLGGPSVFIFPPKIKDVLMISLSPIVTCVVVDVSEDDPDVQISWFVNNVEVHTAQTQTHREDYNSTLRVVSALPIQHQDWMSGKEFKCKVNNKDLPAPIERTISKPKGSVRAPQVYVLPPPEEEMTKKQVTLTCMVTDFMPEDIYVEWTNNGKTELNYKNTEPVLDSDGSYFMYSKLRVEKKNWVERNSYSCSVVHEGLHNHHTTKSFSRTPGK
Method: as §1, §2

IgG2b = IgG2b (mouse, UniProt P01867-2 P01867-2:98-335); test: SPR; details: tags: Zymed Laboratories, chain copies: 2, label: 3' A16 tail for immobilisation
IgG2b, sequence (P01867 other isoform, or with tags, fused parts or gaps): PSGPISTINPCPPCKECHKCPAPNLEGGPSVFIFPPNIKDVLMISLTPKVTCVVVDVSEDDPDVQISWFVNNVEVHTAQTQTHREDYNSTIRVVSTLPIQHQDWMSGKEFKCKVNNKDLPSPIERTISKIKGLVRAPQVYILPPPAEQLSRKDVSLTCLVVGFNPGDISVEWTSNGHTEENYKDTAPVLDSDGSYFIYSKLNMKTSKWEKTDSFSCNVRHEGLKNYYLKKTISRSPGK
Method: as §1, §2

IgG3 = IgG3 (human, UniProt P01860-1 P01860-1:99-377); test: SPR; details: tags: Calbiochem, chain copies: 2, label: 3' A16 tail for immobilisation
IgG3, sequence (P01860 other isoform, or with tags, fused parts or gaps): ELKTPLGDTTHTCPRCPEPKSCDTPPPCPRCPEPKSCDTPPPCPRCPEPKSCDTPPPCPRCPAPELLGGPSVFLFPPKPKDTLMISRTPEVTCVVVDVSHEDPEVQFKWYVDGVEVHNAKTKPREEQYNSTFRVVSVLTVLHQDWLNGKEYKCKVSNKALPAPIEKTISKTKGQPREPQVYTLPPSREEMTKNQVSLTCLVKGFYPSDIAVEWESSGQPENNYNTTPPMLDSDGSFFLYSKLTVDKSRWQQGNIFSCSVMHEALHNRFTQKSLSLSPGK
Method: as §1, §2

IgG4 = IgG4 (human, UniProt P01861-1 P01861-1:99-327); test: SPR; details: tags: Calbiochem, chain copies: 2, label: 3' A16 tail for immobilisation
IgG4, sequence (P01861 other isoform, or with tags, fused parts or gaps): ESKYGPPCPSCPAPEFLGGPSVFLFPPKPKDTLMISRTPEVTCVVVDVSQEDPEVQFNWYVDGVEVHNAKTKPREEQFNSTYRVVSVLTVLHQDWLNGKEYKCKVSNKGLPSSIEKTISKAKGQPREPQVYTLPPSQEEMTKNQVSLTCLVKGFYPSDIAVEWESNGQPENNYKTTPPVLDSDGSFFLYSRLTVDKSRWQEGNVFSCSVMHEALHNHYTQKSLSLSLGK
Method: as §1, §2

IgG2 = IgG2 (human, UniProt P01859-1 P01859-1:99-326); test: SPR; details: tags: Calbiochem, chain copies: 2, label: 3' A16 tail for immobilisation
IgG2, sequence (P01859 other isoform, or with tags, fused parts or gaps): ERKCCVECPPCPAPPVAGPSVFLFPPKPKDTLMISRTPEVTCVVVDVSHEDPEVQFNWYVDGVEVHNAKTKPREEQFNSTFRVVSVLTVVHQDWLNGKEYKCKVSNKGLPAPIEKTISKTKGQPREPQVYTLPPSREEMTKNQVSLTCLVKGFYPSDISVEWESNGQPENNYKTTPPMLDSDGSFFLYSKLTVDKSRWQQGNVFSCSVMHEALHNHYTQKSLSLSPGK
Method: as §1, §2

IgG2c = IgG2c (rat, UniProt P20762 P20762:1-329); test: SPR; details: tags: UK-Serotec, chain copies: 2, label: 3' A16 tail for immobilisation
IgG2c, sequence (P20762 whole entry, one chain of several): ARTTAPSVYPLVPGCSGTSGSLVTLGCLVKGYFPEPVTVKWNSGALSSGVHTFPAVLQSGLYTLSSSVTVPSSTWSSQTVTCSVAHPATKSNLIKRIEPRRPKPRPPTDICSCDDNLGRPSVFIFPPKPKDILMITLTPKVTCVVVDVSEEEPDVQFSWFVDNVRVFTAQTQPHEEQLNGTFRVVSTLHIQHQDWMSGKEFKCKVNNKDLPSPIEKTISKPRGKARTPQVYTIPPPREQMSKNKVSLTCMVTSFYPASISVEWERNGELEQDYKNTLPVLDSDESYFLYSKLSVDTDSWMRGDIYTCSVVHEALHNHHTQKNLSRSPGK
Method: as §1, §2

IgG1 [1] = molecular target: T1, IgG1 (human, UniProt P01857-1 P01857-1:1-330); test: SPR; solution A; short aptamers fit bivalent 1:2 model better; details: tags: Calbiochem; chain copies: 2; label: 3' A16 tail for immobilisation
T1 sequence (P01857 other isoform, or with tags, fused parts or gaps): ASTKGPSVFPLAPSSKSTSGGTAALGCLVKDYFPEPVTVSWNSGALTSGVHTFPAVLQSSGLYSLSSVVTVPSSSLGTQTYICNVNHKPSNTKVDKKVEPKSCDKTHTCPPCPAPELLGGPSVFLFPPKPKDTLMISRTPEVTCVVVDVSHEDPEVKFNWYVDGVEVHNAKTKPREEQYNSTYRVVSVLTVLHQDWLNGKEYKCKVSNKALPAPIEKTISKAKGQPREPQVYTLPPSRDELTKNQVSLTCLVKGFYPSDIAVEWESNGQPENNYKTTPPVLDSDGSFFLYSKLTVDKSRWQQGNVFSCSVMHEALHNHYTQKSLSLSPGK

IgG1 [2] = molecular target: T1, IgG1; test: SPR; +++ in Table 4; binding not reduced in 500 mM NaCl, 2 mM MgCl2; details: tags: Calbiochem; chain copies: 2
IgG1 [3] = molecular target: T1, IgG1; test: SPR; text says higher than SEQ 17, table shows equal; details: tags: Calbiochem; chain copies: 2
Method: as §1
The RNAs were prepared by chemical synthesis (manufactured by Gene Design). Their binding affinities were measured by a surface plasmon resonance method as in Example 1. Used as the IgG was human IgG1 (manufactured by Calbiochem).

Protein A = Protein A (UniProt P02976 P02976:37-485); test: SPR; control; Protein A bound only when IgG1 was on the aptamer; details: tags: MP Biomedicals; label: 3' A16 tail for immobilisation; GGUGCU bulge
Protein A, sequence (P02976 37-485, one chain of several): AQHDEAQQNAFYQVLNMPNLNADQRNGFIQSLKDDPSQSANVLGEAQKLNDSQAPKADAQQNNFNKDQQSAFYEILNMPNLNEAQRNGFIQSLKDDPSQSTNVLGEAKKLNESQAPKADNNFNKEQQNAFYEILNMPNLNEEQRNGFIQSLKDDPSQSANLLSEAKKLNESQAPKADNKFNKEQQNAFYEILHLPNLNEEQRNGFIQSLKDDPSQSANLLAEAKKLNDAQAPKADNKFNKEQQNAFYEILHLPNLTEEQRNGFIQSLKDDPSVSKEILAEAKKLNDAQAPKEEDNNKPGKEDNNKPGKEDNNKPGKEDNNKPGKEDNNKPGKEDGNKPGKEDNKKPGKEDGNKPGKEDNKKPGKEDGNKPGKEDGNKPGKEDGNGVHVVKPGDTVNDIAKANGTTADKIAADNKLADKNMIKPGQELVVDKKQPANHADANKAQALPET
Method: as §1

IgG1 [4] = molecular target: T1, IgG1; test: SPR; solution A: 145 mM NaCl, 5.4 mM KCl, 1.8 mM CaCl2, 0.8 mM MgCl2, 20 mM Tris pH 7.6; details: tags: Calbiochem; chain copies: 2; label: 3' A16 tail for immobilisation; GGUGCU bulge
Method: as §1
The dissociation constant was determined by immobilizing an RNA having 16-residue PolyA added to the 3′ end thereof onto a sensor chip via an A-dT bond, injecting different concentrations of IgG (0.6 μM to 0.05 μM), and performing surface plasmon resonance.

IgG, sequence (P01870 whole entry, one chain of several): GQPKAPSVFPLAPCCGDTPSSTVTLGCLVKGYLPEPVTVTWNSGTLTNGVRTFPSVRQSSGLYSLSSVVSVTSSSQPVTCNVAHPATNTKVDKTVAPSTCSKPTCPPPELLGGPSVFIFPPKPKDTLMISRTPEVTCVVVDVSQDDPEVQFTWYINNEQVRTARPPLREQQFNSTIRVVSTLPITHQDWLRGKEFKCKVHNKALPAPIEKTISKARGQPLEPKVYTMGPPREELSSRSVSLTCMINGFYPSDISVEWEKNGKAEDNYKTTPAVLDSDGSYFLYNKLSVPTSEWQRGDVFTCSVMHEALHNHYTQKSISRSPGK

GGAGGUGCUCCGAAAGGAACUCC (ssRNA, 2'-F at all pyrimidines) [SEQ ID NO:17]: no binding (IgG); no binding (IgG2a); no binding (IgG2b). GGAGGUGCUCCGAAAGGAACUCC (ssRNA, 2'-F at all pyrimidines) [SEQ ID NO:17]: binds (IgG3); binds (IgG4); binds (IgG2). The binding result (IgG2c) was “no binding” and the Kd (IgG1 [1]) was 10 nM.

B1: SEQ ID NO:17-7 (23F23) (mixed)
RNA: GGAGGUGCUCCGAAAGGAACUCCAAAAAAAAAAAAAAAA
modifications: deoxy G1 G2 C8 C10 C11 G12-A15 A18 A19 C22 C23 and A16 tail; 2'-F U6 U9 C20 U21; rest 2'-OH
B1: binds (IgG1 [2]).

GGAGGUGCUCCGAAAGGAACUCCAAAAAAAAAAAAAAAA (mixed, as 17-7 with 2'-OMe G16) [SEQ ID NO:17-9 (23F32)]: binds (IgG1 [3]).

B2: SEQ ID NO:1 (ssRNA)
RNA: GGGACACAAUGGACGAGUUACAGGUGCUCCAUCAACAAAAUGUUACAUGGAACUGUAACGGCCGACAUGAGAG
modifications: 2'-F at all pyrimidines
B2: no binding (Protein A); no binding (IgG; GGUGCU bulge); no binding (IgG2a; GGUGCU bulge). B2: no binding (IgG2b; GGUGCU bulge); binds (IgG3; GGUGCU bulge); binds (IgG4; GGUGCU bulge). For the same binder, the binding result (IgG2; GGUGCU bulge) was “binds”, the binding result (IgG2c; GGUGCU bulge) was “no binding” and the Kd (IgG1 [4]) was 0.3 nM.
